Drawing on article doi:10.1101/2025.10.27.684941, this text covers fold increase in binding over wild type Cx36 and fold increase in binding over the wild-type peptide for three substances.

Assay [1] has as its target Venus-PDZ1 (ZO-1) (human) (UniProt Q07157). Briefly: co-IP.
Assay [2] deals with biotinylated C-terminal Cx36 peptide, D317F (UniProt O54851). Briefly: pull-down.
Assay [3] addresses biotinylated C-terminal Cx36 peptide, D317A (UniProt O54851). Briefly: pull-down.

UniProt Q07157, sequence (Q07157 whole entry): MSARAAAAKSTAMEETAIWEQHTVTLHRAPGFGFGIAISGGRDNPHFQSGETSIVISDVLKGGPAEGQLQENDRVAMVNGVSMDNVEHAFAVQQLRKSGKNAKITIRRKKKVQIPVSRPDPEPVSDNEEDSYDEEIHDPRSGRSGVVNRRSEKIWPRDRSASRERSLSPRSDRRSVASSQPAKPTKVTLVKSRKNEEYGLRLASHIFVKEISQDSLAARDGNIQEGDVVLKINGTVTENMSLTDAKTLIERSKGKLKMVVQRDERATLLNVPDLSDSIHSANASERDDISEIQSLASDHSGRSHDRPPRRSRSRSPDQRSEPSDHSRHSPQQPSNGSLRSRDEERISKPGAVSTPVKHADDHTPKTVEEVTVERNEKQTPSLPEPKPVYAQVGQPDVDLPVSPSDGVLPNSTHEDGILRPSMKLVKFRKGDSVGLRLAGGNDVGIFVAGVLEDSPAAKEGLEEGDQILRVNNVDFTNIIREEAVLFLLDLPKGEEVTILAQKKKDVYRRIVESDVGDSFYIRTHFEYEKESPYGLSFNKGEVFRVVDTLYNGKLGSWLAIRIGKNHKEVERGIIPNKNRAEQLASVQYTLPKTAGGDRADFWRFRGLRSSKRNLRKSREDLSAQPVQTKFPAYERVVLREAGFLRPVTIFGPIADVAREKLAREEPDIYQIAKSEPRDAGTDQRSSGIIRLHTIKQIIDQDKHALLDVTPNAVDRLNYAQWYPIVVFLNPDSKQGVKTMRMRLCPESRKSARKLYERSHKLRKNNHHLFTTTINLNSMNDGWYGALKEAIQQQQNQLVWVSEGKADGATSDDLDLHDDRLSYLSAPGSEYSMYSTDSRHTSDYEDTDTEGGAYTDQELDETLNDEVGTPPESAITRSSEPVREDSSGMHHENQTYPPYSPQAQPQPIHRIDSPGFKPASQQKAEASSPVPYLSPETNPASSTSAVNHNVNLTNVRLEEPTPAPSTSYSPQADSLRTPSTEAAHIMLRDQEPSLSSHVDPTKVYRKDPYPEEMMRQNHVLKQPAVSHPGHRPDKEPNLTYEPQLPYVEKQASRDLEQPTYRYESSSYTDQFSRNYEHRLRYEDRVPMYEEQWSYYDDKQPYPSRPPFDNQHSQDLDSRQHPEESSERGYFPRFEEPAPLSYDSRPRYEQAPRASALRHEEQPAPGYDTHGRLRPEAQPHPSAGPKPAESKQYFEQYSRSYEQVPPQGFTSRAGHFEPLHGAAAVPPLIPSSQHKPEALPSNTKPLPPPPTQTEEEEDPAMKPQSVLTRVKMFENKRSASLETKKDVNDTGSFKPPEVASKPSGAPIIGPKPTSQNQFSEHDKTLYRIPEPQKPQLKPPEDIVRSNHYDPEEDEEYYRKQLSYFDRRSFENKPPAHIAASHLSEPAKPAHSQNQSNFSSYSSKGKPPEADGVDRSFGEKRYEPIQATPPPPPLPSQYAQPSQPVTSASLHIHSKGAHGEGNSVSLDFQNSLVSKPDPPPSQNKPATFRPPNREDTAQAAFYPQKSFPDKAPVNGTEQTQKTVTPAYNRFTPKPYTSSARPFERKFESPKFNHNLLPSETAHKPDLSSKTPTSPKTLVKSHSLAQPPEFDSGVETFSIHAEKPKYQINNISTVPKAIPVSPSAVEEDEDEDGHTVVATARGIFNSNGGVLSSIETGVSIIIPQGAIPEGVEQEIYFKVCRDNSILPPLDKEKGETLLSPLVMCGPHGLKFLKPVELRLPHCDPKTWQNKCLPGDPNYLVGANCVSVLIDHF

In assay [1], “Cx36 D317A (from UniProt O54851 1-321) (natural protein)” returned a fold increase in binding over wild type Cx36 of 5 to 7 times.

Regarding “Cx36 D317F (from UniProt O54851 1-321) (natural protein)”, in assay [1], the fold increase in binding over wild type Cx36 is 5 to 7 times.

Take “His-Venus-PDZ1 (ZO-1) (domain or fragment)”: the fold increase in binding over the wild-type peptide in assay [2] came to 10 fold; in assay [3], 5 fold.
